Experimental data from patent EP4810607A2.

Tests used:
[1] = biological target: human IL-11 (native, secreted by human fibroblasts in culture) (human) (UniProt P20809); test: cell-based or functional assay
[2] = biological target: mouse IL-11 (endogenous, produced by mouse fibroblasts in culture) (mouse) (UniProt P47873); test: cell-based or functional assay
Sequence of UniProt P47873 (P47873 22-199 limits assumed): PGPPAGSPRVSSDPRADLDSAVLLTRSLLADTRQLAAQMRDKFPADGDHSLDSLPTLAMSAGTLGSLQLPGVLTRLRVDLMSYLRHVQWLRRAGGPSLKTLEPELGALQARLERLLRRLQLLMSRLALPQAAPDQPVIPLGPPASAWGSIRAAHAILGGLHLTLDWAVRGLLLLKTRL

Sequence of UniProt P20809 (P20809 22-199): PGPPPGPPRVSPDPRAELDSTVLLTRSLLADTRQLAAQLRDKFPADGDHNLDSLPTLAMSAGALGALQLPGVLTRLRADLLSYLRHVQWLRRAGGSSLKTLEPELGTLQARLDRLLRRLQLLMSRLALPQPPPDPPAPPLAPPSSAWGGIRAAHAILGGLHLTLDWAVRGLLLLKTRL

- percentage of activated fibroblasts normalised to non-stimulated cultures, TGFβ1-stimulated human atrial fibroblasts (fold of non-stimulated) [1]: 0.99
- percentage of activated fibroblasts relative to unstimulated cultures, TGFβ1-stimulated human atrial fibroblasts [1]: 0.89 fold
- percentage of activated fibroblasts, TGFβ1-stimulated human atrial fibroblasts [1]: 28.3%
- percentage of activated fibroblasts normalised to non-stimulated cultures, TGFβ1-stimulated mouse dermal fibroblasts (fold of non-stimulated) [2]: 1.24
- percentage of activated fibroblasts relative to unstimulated cultures, TGFβ1-stimulated mouse atrial fibroblasts [2]: 1.44 fold
- percentage of activated fibroblasts, TGFβ1-stimulated mouse dermal fibroblasts [2]: 39.4%
Substance: neutralising anti-human IL-11 monoclonal antibody (Monoclonal Mouse IgG2A; Clone #22626; Catalog No. MAB218; R&D Systems, MN, USA)
